Reference: paper PMC6339873 (Frontiers in Microbiology, 2018)

What was measured:
[1] = target: st_YfdX(YI), S. Typhi YfdX with Y100A and I137A (Salmonella enterica serovar Typhi); test: […]; pH 7.5; […] (pH 7.5), 200 mM NaCl, 1 mM DTT, […]
[2] = target: st_YfdX(YI), S. Typhi YfdX with Y100A and I137A (Salmonella enterica serovar Typhi); test: […]; pH 6.0; […] (pH 6.0), 200 mM NaCl, 1 mM DTT, […]
[3] = target: the molecule itself; test: […]; pH 7.5; […] (pH 7.5), 200 mM NaCl, 1 mM DTT, […]
[4] = target: the molecule itself; test: crystal structure; sitting-drop vapor diffusion at 18°C; crystal I and II at pH 4.6 (F222), crystal III at pH 5.0 (P222); crystals II and III from protein with 1 mM ZnCl2; the tetramer is seen in the crystal lattice
[5] = target: the molecule itself; test: SEC-MALS; pH 10.0 (kp_YfdX, Supplementary Figure S1)
[6] = target: the molecule itself; test: SEC-MALS; Superdex 75 Increase 10/300 GL; pH 6.0; st_YfdX proteins in 20 mM Bis-Tris-HCl (pH 6.0), 200 mM NaCl, 1 mM DTT, wild type at 10 and 30 mg/mL, mutants at 30 mg/mL; buffer and concentration of kp_YfdX not told

st_YfdX(YI), S. Typhi YfdX with Y100A and I137A (domain or fragment)
stoichiometry N [1]: 2 | stoichiometry N [2]: 2

B1: S. Typhi YfdX, residues 10-186 (st_YfdX), wild type (domain or fragment)
chain: MAATNMTDNVTLNNDKISGQAWQAMRDIGMSRFELFNGRTQKAEQLAAQAEKLLNDDSTDWNLYVKSDKKAPVEGDHYIRINSSITVAEDYLPAGQKNDAINKANQKMKEGDKKGTIEALKLAGVSVIENQELIPLQQTRKDVTTALSLMNEGKYYQAGLLLKSAQDGIVVDSQSVQLEHHHHHH
stoichiometry N [3]: 2 | stoichiometry N [4]: 4

B2: K. pneumoniae YfdX (kp_YfdX), recombinant (natural protein)
chain: ATDSATAAPAAAATTQVQKEAADVLQVAVQGANAMRDIQFARLALFHGQPDSAKKLTDDAAALLAADDASWAKFVKTDAKAKMIADRYVIINASIALSEDYVATPEKESAIQSANEKLAKGDQKGAIDTLRLAGIGVIENQYLMPLNQTRKAVAQSQELLKAGKYYEANLVLKGAEEGIVVDSEMLVAGN
notes: YfdX of Klebsiella pneumoniae; Cloned into pET21a; PDB 3DZA (cited) holds a crystal structure of the same protein
stoichiometry N [5]: 2 | stoichiometry N [6]: 4
